How the values were obtained:
[1] = target: afucosylated palivizumab glycoform monogalactosylated at the α6 antenna (G1(6)) (human); assay: SPR; Biacore T200, 25°C, PBS with 0.05% Tween 20 and 3.4 mM EDTA; palivizumab analogues captured on immobilised Protein A (CM-5); FcγRIIIA injected, single-cycle kinetics, 2.3 nM to 0.56 µM; 1:1 binding model, KD from the ratio of the rate constants; three repeats
[2] = target: afucosylated agalactosylated (G0) palivizumab glycoform (human); assay: as above
[3] = target: digalactosylated afucosylated (G2) palivizumab glycoform (human); assay: as above
[4] = target: afucosylated palivizumab glycoform monogalactosylated at the α3 antenna (G1(3)) (human); assay: as above
[5] = target: commercially available palivizumab (Synagis) (human); assay: SPR; same set-up as the kinetic SPR (palivizumab captured on Protein A, FcγRIIIA injected); value told as steady state binding
[6] = target: FcγRIIIa (CD16A) F176 on NK92-GFP-CD16A cells (F variant) (human) (UniProt P08637); assay: flow cytometry on cells; NK92-GFP-CD16A cells (V or F variant) with 2.5-fold serial dilutions of palivizumab glycoforms in 1% BSA/PBS, 4°C, 30 min; detected with Alexa Fluor 647 anti-human IgG F(ab')2-specific fragment; % GFP+AF647+ cells
[7] = target: FcγRIIIa (CD16A) V176 on NK92-GFP-CD16A cells (V variant) (human) (UniProt P08637)

Chain of afucosylated agalactosylated (G0) palivizumab glycoform (human) (heavy, as listed by the source, chain 1 of 2): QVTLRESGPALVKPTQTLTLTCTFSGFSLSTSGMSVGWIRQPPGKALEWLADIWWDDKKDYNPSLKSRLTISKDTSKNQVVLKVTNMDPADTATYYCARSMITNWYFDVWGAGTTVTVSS
Chain of afucosylated agalactosylated (G0) palivizumab glycoform (human) (light, as listed by the source, chain 2 of 2): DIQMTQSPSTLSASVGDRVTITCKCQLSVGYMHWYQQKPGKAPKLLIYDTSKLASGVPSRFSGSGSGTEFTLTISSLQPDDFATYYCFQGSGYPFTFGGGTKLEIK
Chain of afucosylated palivizumab glycoform monogalactosylated at the α6 antenna (G1(6)) (human) (heavy, as listed by the source, chain 1 of 2): as the sequence (heavy, as listed by the source, chain 1 of 2) above
Chain of afucosylated palivizumab glycoform monogalactosylated at the α6 antenna (G1(6)) (human) (light, as listed by the source, chain 2 of 2): as the sequence (light, as listed by the source, chain 2 of 2) above
Chain of afucosylated palivizumab glycoform monogalactosylated at the α3 antenna (G1(3)) (human) (heavy, as listed by the source, chain 1 of 2): as the sequence (heavy, as listed by the source, chain 1 of 2) above
Chain of afucosylated palivizumab glycoform monogalactosylated at the α3 antenna (G1(3)) (human) (light, as listed by the source, chain 2 of 2): as the sequence (light, as listed by the source, chain 2 of 2) above
Chain of digalactosylated afucosylated (G2) palivizumab glycoform (human) (heavy, as listed by the source, chain 1 of 2): as the sequence (heavy, as listed by the source, chain 1 of 2) above
Chain of digalactosylated afucosylated (G2) palivizumab glycoform (human) (light, as listed by the source, chain 2 of 2): as the sequence (light, as listed by the source, chain 2 of 2) above
Chain of commercially available palivizumab (Synagis) (human) (heavy, as listed by the source, chain 1 of 2): as the sequence (heavy, as listed by the source, chain 1 of 2) above
Chain of commercially available palivizumab (Synagis) (human) (light, as listed by the source, chain 2 of 2): as the sequence (light, as listed by the source, chain 2 of 2) above

Row | Substance | Kd [1] | Kd [2] | Kd [3] | Kd [4] | maximum percent of cells bound [6] | ADCC reporter assay (Jurkat T-cell luciferase reporter cells, CD16A V variant; RSV-infected Hep2 cells), activity against the G0 glycoform [7] | further results
1 | FcγRIIIA CD16A high binding (V) variant, National Research Council (Canada) (from UniProt P08637 17-254) (receptor) | 6 nM | 110 nM | 5.9 nM | 110 nM | – | – | Kd [5]: 1000 nM
2 | FcγRIIIA CD16A low binding (F) variant, National Research Council (Canada) (from UniProt P08637 17-254) (receptor) | 25 to 31 nM | 60 nM | 25.6 nM | 60 nM | – | – | –
3 | afucosylated agalactosylated (G0) palivizumab glycoform (antibody) | – | – | – | – | 30% | – | –
4 | afucosylated palivizumab glycoform monogalactosylated at the α3 antenna (G1(3)) (antibody) | – | – | – | – | 30% | – | –
5 | afucosylated palivizumab glycoform monogalactosylated at the α6 antenna (G1(6)) (antibody) | – | – | – | – | – | 2 fold | –
6 | digalactosylated afucosylated (G2) palivizumab glycoform (antibody) | – | – | – | – | – | 2 fold | –

From paper PMC9596277
